Patent US20150344570A1 (published 2015)

T1: FcγRIIa R (extracellular domain, His tag at the C terminus) (human, UniProt P12318 34-217)
T1 construct: extracellular domain; Soluble analyte in Biacore; also called FcgRIIa R type; 2aR
T1 sequence (looked up): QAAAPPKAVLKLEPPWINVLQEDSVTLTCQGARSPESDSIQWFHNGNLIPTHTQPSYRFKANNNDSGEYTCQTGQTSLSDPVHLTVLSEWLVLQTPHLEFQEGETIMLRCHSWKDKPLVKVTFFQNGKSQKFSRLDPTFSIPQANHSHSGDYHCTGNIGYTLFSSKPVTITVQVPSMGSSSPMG

B1: GpH7-B3 variant G236_10E/GpL16-k0 (antibody, human IgG1, kappa)
heavy: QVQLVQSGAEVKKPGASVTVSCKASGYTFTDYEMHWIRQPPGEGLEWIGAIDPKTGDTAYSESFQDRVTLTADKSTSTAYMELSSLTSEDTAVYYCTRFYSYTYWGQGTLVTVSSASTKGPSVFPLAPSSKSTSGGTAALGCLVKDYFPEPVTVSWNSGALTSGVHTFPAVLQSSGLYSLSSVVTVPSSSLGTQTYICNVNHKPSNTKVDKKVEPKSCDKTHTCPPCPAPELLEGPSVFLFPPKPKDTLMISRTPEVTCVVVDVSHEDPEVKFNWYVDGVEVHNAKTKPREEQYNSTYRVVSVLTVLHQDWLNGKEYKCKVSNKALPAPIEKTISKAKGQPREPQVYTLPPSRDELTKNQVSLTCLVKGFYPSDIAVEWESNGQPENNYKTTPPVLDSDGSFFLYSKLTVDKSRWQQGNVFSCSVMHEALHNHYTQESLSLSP
light: DIVMTQSPLSLPVTPGEPASISCQASESLVHSNRNTYLHWYLQKPGQSPQLLIYKVSNRFSGVPDRFSGSGSGTDFTLKISRVEAEDVGVYYCSQNTHVPPTFGQGTKVEIERTVAAPSVFIFPPSDEQLKSGTASVVCLLNNFYPREAKVQWKVDNALQSGNSQESVTEQDSKDSTYSLSSTLTLSKADYEKHKVYACEVTHQGLSSPVTKSFNRGEC
notes: homodimerized; also called Ho Ab
B2: GpH7-A5/GpH7-B3 variant T335_15Y/GpL16-k0 (antibody, human IgG1, kappa)
heavy 1: not shown
heavy 2: not shown
light: B1 light
notes: heterodimerized; also called He Ab
B3: GpH7-B3 variant K326_10E/GpL16-k0 (antibody, human IgG1, kappa)
heavy: not shown
light: B1 light
notes: as for B1
B4: GpH7-B3 variant H268_10E/GpL16-k0 (antibody, human IgG1, kappa)
heavy: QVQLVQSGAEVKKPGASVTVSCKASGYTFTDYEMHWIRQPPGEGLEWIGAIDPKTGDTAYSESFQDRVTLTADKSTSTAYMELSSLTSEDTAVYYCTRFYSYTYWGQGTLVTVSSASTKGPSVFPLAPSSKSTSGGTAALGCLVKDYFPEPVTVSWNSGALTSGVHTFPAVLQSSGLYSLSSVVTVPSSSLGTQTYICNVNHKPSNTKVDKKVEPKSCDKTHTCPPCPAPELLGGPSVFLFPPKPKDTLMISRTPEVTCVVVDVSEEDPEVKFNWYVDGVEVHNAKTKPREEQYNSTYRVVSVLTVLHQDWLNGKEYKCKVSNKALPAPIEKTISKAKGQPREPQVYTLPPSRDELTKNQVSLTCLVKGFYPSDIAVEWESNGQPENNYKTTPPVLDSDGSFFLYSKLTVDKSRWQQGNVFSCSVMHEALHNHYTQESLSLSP
light: B1 light
notes: as for B1
B5: GpH7-B3 variant T335_09D/GpL16-k0 (antibody, human IgG1, kappa)
heavy: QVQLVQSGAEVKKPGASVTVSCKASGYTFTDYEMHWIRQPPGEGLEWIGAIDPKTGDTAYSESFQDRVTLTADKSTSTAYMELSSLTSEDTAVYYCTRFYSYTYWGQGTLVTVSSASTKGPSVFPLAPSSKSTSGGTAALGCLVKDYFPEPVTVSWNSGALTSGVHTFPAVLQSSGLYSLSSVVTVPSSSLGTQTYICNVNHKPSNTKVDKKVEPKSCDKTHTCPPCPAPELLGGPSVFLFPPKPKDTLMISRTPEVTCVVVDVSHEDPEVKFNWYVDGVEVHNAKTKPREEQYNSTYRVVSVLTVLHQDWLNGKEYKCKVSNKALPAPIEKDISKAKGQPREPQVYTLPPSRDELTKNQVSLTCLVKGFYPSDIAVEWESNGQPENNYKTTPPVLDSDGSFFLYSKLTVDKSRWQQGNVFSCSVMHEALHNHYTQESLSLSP
light: B1 light
notes: as for B1
B6: GpH7-B3 variant K334_14T/GpL16-k0 (antibody, human IgG1, kappa)
heavy: not shown
light: B1 light
notes: as for B1
B7: GpH7-B3 variant T335_06M/GpL16-k0 (antibody, human IgG1, kappa)
heavy: not shown
light: B1 light
notes: as for B1
B8: GpH7-B3 variant H268_13S/GpL16-k0 (antibody, human IgG1, kappa)
heavy: not shown
light: B1 light
notes: as for B1
B9: GpH7-B3 variant S337_14T/GpL16-k0 (antibody, human IgG1, kappa)
heavy: not shown
light: B1 light
notes: as for B1
B10: GpH7-B3 variant P271_01G/GpL16-k0 (antibody, human IgG1, kappa)
heavy: not shown
light: B1 light
notes: as for B1
B11: GpH7-B3 variant K334_07I/GpL16-k0 (antibody, human IgG1, kappa)
heavy: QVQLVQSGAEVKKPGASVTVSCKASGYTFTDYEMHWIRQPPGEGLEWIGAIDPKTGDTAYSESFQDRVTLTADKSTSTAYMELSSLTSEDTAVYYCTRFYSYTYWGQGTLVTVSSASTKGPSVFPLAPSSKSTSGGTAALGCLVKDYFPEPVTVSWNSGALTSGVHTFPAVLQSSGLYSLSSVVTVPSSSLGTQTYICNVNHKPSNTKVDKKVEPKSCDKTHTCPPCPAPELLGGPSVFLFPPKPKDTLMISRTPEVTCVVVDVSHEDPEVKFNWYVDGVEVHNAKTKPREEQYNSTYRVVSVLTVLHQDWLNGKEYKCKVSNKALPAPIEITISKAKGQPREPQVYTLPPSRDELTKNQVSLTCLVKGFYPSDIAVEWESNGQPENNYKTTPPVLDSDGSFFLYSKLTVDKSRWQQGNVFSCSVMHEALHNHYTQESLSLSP
light: B1 light
notes: as for B1
B12: GpH7-A5/GpH7-B3 variant G236_10E/GpL16-k0 (antibody, human IgG1, kappa)
heavy 1: not shown
heavy 2: not shown
light: B1 light
notes: as for B2
B13: GpH7-B3 variant P238_08L/GpL16-k0 (antibody, human IgG1, kappa)
heavy: not shown
light: B1 light
notes: as for B1
B14: GpH7-A5/GpH7-B3 variant H268_18N/GpL16-k0 (antibody, human IgG1, kappa)
heavy 1: not shown
heavy 2: not shown
light: B1 light
notes: as for B2
B15: GpH7-B3 variant L328_04F/GpL16-k0 (antibody, human IgG1, kappa)
heavy: not shown
light: B1 light
notes: as for B1
B16: GpH7-B3 variant K326_09D/GpL16-k0 (antibody, human IgG1, kappa)
heavy: not shown
light: B1 light
notes: as for B1
B17: GpH7-B3 variant H268_18N/GpL16-k0 (antibody, human IgG1, kappa)
heavy: not shown
light: B1 light
notes: as for B1
B18: GpH7-B3 variant T335_16H/GpL16-k0 (antibody, human IgG1, kappa)
heavy: not shown
light: B1 light
notes: as for B1
B19: GpH7-B3 variant T335_04F/GpL16-k0 (antibody, human IgG1, kappa)
heavy: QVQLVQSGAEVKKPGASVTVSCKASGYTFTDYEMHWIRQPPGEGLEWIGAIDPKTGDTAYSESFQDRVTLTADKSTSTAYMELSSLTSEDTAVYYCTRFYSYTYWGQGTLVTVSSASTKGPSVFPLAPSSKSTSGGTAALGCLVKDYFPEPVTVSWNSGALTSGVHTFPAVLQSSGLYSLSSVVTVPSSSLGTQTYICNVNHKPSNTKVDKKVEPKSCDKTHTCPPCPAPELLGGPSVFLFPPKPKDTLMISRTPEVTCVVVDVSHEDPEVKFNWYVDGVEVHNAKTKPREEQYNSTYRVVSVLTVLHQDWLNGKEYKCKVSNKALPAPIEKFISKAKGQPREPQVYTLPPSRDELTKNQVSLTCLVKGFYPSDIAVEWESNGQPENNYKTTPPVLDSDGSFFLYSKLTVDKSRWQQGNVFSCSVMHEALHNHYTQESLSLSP
light: B1 light
notes: as for B1
B20: GpH7-B3 variant S267_02A/GpL16-k0 (antibody, human IgG1, kappa)
heavy: not shown
light: B1 light
notes: as for B1
B21: GpH7-B3 variant K334_15Y/GpL16-k0 (antibody, human IgG1, kappa)
heavy: not shown
light: B1 light
notes: as for B1
B22: GpH7-B3 variant K326_16H/GpL16-k0 (antibody, human IgG1, kappa)
heavy: not shown
light: B1 light
notes: as for B1
B23: GpH7-B3 variant K334_16H/GpL16-k0 (antibody, human IgG1, kappa)
heavy: not shown
light: B1 light
notes: as for B1
B24: GpH7-B3 variant S267_01G/GpL16-k0 (antibody, human IgG1, kappa)
heavy: not shown
light: B1 light
notes: as for B1
B25: GpH7-A5/GpH7-B3 variant G236_09D/GpL16-k0 (antibody, human IgG1, kappa)
heavy 1: not shown
heavy 2: not shown
light: B1 light
notes: as for B2
B26: GpH7-B3 variant I332_15Y/GpL16-k0 (antibody, human IgG1, kappa)
heavy: not shown
light: B1 light
notes: as for B1
B27: GpH7-B3 variant S239_09D/GpL16-k0 (antibody, human IgG1, kappa)
heavy: not shown
light: B1 light
notes: as for B1
B28: GpH7-A5/GpH7-B3 variant I332_10E/GpL16-k0 (antibody, human IgG1, kappa)
heavy 1: not shown
heavy 2: not shown
light: B1 light
notes: as for B2
B29: GpH7-B3 variant T335_08L/GpL16-k0 (antibody, human IgG1, kappa)
heavy: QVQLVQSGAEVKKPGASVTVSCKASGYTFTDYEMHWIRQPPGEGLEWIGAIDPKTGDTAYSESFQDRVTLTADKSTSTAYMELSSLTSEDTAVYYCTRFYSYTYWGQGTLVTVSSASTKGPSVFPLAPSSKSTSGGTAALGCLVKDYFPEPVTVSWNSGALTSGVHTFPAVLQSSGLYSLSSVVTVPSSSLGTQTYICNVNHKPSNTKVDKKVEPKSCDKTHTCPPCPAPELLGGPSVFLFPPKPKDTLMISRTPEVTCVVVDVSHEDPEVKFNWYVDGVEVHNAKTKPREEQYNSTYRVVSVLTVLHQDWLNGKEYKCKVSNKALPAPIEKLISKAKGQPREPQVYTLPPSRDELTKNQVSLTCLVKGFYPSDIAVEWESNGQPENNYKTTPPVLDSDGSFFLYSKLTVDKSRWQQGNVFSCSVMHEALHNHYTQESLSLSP
light: B1 light
notes: as for B1
B30: GpH7-A5/GpH7-B3 variant I332_04F/GpL16-k0 (antibody, human IgG1, kappa)
heavy 1: not shown
heavy 2: not shown
light: B1 light
notes: as for B2
B31: GpH7-B3 variant I332_09D/GpL16-k0 (antibody, human IgG1, kappa)
heavy: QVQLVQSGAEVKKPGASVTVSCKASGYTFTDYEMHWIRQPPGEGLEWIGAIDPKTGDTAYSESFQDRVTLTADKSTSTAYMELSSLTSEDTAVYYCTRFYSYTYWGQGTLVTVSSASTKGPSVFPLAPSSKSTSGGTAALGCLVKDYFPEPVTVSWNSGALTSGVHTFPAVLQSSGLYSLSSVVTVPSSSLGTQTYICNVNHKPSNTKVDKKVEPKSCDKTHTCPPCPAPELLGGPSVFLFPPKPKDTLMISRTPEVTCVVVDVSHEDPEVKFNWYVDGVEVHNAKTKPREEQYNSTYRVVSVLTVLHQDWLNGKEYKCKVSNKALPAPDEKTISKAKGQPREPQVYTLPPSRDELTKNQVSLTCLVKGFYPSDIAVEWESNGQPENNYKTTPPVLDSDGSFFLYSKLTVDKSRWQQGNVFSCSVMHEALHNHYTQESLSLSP
light: B1 light
notes: as for B1
B32: GpH7-B3 variant L328_06M/GpL16-k0 (antibody, human IgG1, kappa)
heavy: not shown
light: B1 light
notes: as for B1
B33: GpH7-A5/GpH7-B3 variant H268_13S/GpL16-k0 (antibody, human IgG1, kappa)
heavy 1: not shown
heavy 2: not shown
light: B1 light
notes: as for B2
B34: GpH7-B3 variant K326_06M/GpL16-k0 (antibody, human IgG1, kappa)
heavy: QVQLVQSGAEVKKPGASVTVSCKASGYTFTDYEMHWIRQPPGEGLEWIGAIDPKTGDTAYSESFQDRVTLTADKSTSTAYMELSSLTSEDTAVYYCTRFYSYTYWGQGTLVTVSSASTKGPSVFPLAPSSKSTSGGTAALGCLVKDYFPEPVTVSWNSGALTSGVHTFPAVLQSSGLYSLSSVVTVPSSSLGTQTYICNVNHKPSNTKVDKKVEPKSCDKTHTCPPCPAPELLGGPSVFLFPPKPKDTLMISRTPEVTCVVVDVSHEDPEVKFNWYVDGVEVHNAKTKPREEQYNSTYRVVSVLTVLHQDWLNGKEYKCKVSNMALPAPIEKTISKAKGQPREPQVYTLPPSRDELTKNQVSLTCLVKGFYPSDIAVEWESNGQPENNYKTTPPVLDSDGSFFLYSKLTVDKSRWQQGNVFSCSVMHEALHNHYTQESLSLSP
light: B1 light
notes: as for B1
B35: GpH7-B3 variant Y296_20W/GpL16-k0 (antibody, human IgG1, kappa)
heavy: not shown
light: B1 light
notes: as for B1
B36: GpH7-B3 variant V266_06M/GpL16-k0 (antibody, human IgG1, kappa)
heavy: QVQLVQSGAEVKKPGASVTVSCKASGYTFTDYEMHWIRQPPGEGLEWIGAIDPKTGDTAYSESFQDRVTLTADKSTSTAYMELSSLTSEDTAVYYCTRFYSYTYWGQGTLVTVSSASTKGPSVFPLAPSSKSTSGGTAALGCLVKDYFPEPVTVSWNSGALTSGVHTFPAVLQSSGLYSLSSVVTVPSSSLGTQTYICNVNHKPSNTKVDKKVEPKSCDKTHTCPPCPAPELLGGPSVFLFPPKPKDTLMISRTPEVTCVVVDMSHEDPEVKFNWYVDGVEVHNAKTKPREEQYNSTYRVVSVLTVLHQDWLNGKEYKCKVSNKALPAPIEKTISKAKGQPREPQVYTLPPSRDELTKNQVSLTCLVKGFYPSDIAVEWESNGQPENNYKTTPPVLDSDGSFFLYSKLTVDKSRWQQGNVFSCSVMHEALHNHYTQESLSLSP
light: B1 light
notes: as for B1
B37: GpH7-A5/GpH7-B3 variant I332_09D/GpL16-k0 (antibody, human IgG1, kappa)
heavy 1: not shown
heavy 2: not shown
light: B1 light
notes: as for B2
B38: GpH7-B3 variant K326_14T/GpL16-k0 (antibody, human IgG1, kappa)
heavy: not shown
light: B1 light
notes: as for B1
B39: GpH7-B3 variant Y300_04F/GpL16-k0 (antibody, human IgG1, kappa)
heavy: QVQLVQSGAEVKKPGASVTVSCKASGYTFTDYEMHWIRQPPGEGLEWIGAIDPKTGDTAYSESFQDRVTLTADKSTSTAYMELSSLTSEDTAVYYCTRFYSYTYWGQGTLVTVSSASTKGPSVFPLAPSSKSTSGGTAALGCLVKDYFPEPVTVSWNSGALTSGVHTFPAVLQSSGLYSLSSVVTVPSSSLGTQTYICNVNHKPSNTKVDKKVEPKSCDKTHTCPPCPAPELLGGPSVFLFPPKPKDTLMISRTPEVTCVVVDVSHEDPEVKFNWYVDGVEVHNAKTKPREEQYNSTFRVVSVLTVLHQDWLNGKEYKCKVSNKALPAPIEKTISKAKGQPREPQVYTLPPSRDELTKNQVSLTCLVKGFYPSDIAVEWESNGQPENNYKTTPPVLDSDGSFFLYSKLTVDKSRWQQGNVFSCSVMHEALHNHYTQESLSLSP
light: B1 light
notes: as for B1
B40: GpH7-B3 variant T335_20W/GpL16-k0 (antibody, human IgG1, kappa)
heavy: not shown
light: B1 light
notes: as for B1
B41: GpH7-B3 variant L328_15Y/GpL16-k0 (antibody, human IgG1, kappa)
heavy: not shown
light: B1 light
notes: as for B1
B42: GpH7-B3 variant H268_09D/GpL16-k0 (antibody, human IgG1, kappa)
heavy: not shown
light: B1 light
notes: as for B1
B43: GpH7-A5/GpH7-B3 variant H268_09D/GpL16-k0 (antibody, human IgG1, kappa)
heavy 1: not shown
heavy 2: not shown
light: B1 light
notes: as for B2
B44: GpH7-B3 variant I332_04F/GpL16-k0 (antibody, human IgG1, kappa)
heavy: not shown
light: B1 light
notes: as for B1
B45: GpH7-B3 variant L328_03V/GpL16-k0 (antibody, human IgG1, kappa)
heavy: not shown
light: B1 light
notes: as for B1
B46: GpH7-B3 variant T335_19Q/GpL16-k0 (antibody, human IgG1, kappa)
heavy: not shown
light: B1 light
notes: as for B1
B47: GpH7-B3 variant K326_19Q/GpL16-k0 (antibody, human IgG1, kappa)
heavy: not shown
light: B1 light
notes: as for B1
B48: GpH7-B3 variant I332_10E/GpL16-k0 (antibody, human IgG1, kappa)
heavy: not shown
light: B1 light
notes: as for B1
B49: GpH7-B3 variant K334_03V/GpL16-k0 (antibody, human IgG1, kappa)
heavy: not shown
light: B1 light
notes: as for B1
B50: GpH7-A5/GpH7-B3 variant H268_10E/GpL16-k0 (antibody, human IgG1, kappa)
heavy 1: not shown
heavy 2: not shown
light: B1 light
notes: as for B2
B51: GpH7-B3 variant S267_07I/GpL16-k0 (antibody, human IgG1, kappa)
heavy: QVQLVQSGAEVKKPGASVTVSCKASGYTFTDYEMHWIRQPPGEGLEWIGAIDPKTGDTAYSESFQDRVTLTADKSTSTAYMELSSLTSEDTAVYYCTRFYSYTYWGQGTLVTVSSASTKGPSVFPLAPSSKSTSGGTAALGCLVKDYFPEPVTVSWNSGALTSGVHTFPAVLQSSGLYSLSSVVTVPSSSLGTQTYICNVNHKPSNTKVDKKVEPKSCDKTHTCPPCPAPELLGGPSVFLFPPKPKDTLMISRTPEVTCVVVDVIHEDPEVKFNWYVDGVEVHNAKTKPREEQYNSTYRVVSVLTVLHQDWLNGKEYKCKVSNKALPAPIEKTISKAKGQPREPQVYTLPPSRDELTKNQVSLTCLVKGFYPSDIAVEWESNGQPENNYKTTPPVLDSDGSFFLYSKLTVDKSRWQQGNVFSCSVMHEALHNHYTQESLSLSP
light: B1 light
notes: as for B1
B52: GpH7-B3 variant T335_18N/GpL16-k0 (antibody, human IgG1, kappa)
heavy: not shown
light: B1 light
notes: as for B1
B53: GpH7-B3 variant K334_18N/GpL16-k0 (antibody, human IgG1, kappa)
heavy: not shown
light: B1 light
notes: as for B1
B54: GpH7-B3 variant L328_07I/GpL16-k0 (antibody, human IgG1, kappa)
heavy: not shown
light: B1 light
notes: as for B1
B55: GpH7-B3 variant S239_01G/GpL16-k0 (antibody, human IgG1, kappa)
heavy: not shown
light: B1 light
notes: as for B1

Columns and labels:
[1] = target: T1, FcγRIIa R (extracellular domain, His …); assay: SPR (Biacore), relative binding, control GpH7-B3/GpL16-k0 = 100
Experimental: (§1) Analysis of interaction between objective antibody and the FcγR was carried out using Biacore T100 (GE Healthcare). HBS-EP+ (GE Healthcare) was used as the running buffer, and the measurement temperature was set to 25° C. Chips produced by immobilizing the antigen peptide by the amine coupling method to a Series S Sencor Chip CM5 (GE Healthcare), or alternatively, chips produced by allowing preliminarily biotinylated antigen peptides to interact with and immobilize onto a Series S Sensor Chip SA (certified) (GE Healthcare) were used. Antibodies of interest were captured onto an antigen peptide-immobilized chip, and allowed to interact to each FcγR diluted with running buffer. To regenerate and repeatedly use the chip, the antibodies captured on the chip were washed off by reacting 10 mM glycine-HCl, pH 1.5.

[2] = target: T1, FcγRIIa R (extracellular domain, His …); assay: SPR (Biacore), relative binding, control GpH7-A5/GpH7-B3/GpL16-k0 = 100
Experimental: as §1

Binder | Ho/Con_2aR [1] | He/Con_2aR [2]
B1 | 140 % of control | –
B2 | – | 111 % of control
B3 | 156 % of control | –
B4 | 154 % of control | –
B5 | 113 % of control | –
B6 | 117 % of control | –
B7 | 107 % of control | –
B8 | 135 % of control | –
B9 | 110 % of control | –
B10 | 150 % of control | –
B11 | 121 % of control | –
B12 | – | 125 % of control
B13 | 148 % of control | –
B14 | – | 128 % of control
B15 | 145 % of control | –
B16 | 158 % of control | –
B17 | 134 % of control | –
B18 | 102 % of control | –
B19 | 108 % of control | –
B20 | 160 % of control | –
B21 | 112 % of control | –
B22 | 123 % of control | –
B23 | 111 % of control | –
B24 | 116 % of control | –
B25 | – | 106 % of control
B26 | 111 % of control | –
B27 | 142 % of control | –
B28 | – | 114 % of control

Binder | Ho/Con_2aR [1] | He/Con_2aR [2]
B29 | 108 % of control | –
B30 | – | 105 % of control
B31 | 127 % of control | –
B32 | 124 % of control | –
B33 | – | 127 % of control
B34 | 143 % of control | –
B35 | 107 % of control | –
B36 | 146 % of control | –
B37 | – | 119 % of control
B38 | 141 % of control | –
B39 | 109 % of control | –
B40 | 101 % of control | –
B41 | 157 % of control | –
B42 | 157 % of control | –
B43 | – | 149 % of control
B44 | 109 % of control | –
B45 | 116 % of control | –
B46 | 102 % of control | –
B47 | 137 % of control | –
B48 | 123 % of control | –
B49 | 123 % of control | –
B50 | – | 148 % of control
B51 | 113 % of control | –
B52 | 100 % of control | –
B53 | 113 % of control | –
B54 | 140 % of control | –
B55 | 132 % of control | –
